According to the supplement of paper PMC7877785:
± gives the uncertainty stated by the source.

Experiment: self-splicing fitness, log relative to wild type (ln ratio); higher = more splicing; Tetrahymena group I intron in knt gene, E. coli kanamycin selection, DiMSum; sequences stand for … in CUCUCU…GGAGGGAAAAGUUAUCAGGCAUGCACCUGGUAGCUAGUCUUUAAACCAAUAGAUUGCAUCGGUUUAAAAGGCAAGACCGUCAAAUUGCGGGAAAGGGGUCAACAGCCGUUCAGUACCAAGUCUCAGGGGAAACUUUGAGAUGGCCUUGCAAAGGGUAUGGUAAUAAGCUGACGGACAUGGUCCUAACCACGCAGCCAAGUCCUAAGUCAACAGAUCUUCUGUUGAUAUGGAUGCAGUUCACAGACUAAAUGUCGGUCGGGGAAGAUGUAUUCUUCUCAUAAGAUAUAGUCGGACCUCUCCUUAAUGGGAGCUAGCGGAUGAAGUGAUGCAACACUGGAGCCGCUGGGAACUAAUUUGUAUGCGAAAGUAUAUUGAUUAGUUUUGGAGUACUCGUGGUCG
How it was run: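 Library with all eight P1ex-region intron nucleotides randomised, intron inside the knt kanamycin-resistance gene on pET-22b(+), in E. coli BL21(DE3). Cells grew overnight at 37°C or 30°C on LB agar with or without 25 μg/mL kanamycin (plus 100 μg/mL carbenicillin, 50 μM IPTG, 0.2% rhamnose), in six replicate transformations. Pooled colonies were amplicon-sequenced on Illumina HiSeq 2500. DiMSum fitness is the error-weighted combination of wild-type-normalised replicate fold changes, kanamycin versus none.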

Row | Sequence | self-splicing fitness (ln) (30 °C) | self-splicing fitness (ln) (37 °C)
1 | AGUAAGCAAUAUUACGCCCC | 0.393 ± 0.41 | -1.15 ± 0.36
2 | AGUAAGCAAUAUUACGCGAA | -2.57 ± 0.12 | -1.42 ± 0.19
3 | AGUAAGCAAUAUUACGCGCG | -1.05 ± 0.21 | -0.403 ± 0.21
4 | AGUAAGCAAUAUUACGCGGA | -3.49 ± 0.32 | -0.326 ± 0.11
5 | AGUAAGCAAUAUUACGCUCC | -3.21 ± 0.28 | -1.18 ± 0.2
6 | AGUAAGCAAUAUUACGGAGU | -2.22 ± 0.18 | -2.37 ± 0.39
7 | AGUAAGCAAUAUUACGGCAA | -0.915 ± 0.11 | -0.179 ± 0.096
8 | AGUAAGCAAUAUUACGGCGG | -2.43 ± 0.16 | -1.66 ± 0.19
9 | AGUAAGCAAUAUUACGGCUG | -0.953 ± 0.11 | -0.941 ± 0.12
10 | AGUAAGCAAUAUUACGGGCG | -0.68 ± 0.08 | 0.152 ± 0.12
11 | AGUAAGCAAUAUUACGUAGA | -3.23 ± 0.19 | -1.78 ± 0.16
12 | AGUAAGCAAUAUUACGUAGU | -3.22 ± 0.14 | -2.53 ± 0.16
13 | AGUAAGCAAUAUUACGUCUA | -0.96 ± 0.16 | -0.0188 ± 0.15
14 | AGUAAGCAAUAUUACGUGGC | -2.68 ± 0.16 | -2.54 ± 0.22
15 | AGUAAGCAAUAUUACGUGUU | -3.49 ± 0.13 | -1.99 ± 0.18
16 | AGUAAGCAAUAUUACGUUAU | -3.25 ± 0.23 | -2.18 ± 0.18
17 | AGUCAGCAAUAUUACGACCA | -0.2 ± 0.12 | 0.345 ± 0.14
18 | AGUCAGCAAUAUUACGACGG | -0.725 ± 0.067 | -0.096 ± 0.1
19 | AGUCAGCAAUAUUACGACGU | 0.702 ± 0.092 | -0.164 ± 0.096
20 | AGUCAGCAAUAUUACGAGUG | -2.14 ± 0.079 | -0.966 ± 0.095
21 | AGUCAGCAAUAUUACGAUGA | -0.22 ± 0.057 | -0.0826 ± 0.071
22 | AGUCAGCAAUAUUACGCAGG | -2.85 ± 0.26 | -2.92 ± 0.43
23 | AGUCAGCAAUAUUACGCAUG | -2.04 ± 0.14 | -1.12 ± 0.13
24 | AGUCAGCAAUAUUACGCCAA | -2.75 ± 0.34 | -0.963 ± 0.2

Row | Sequence | self-splicing fitness (ln) (30 °C) | self-splicing fitness (ln) (37 °C)
25 | AGUCAGCAAUAUUACGCGCA | -0.326 ± 0.11 | 0.452 ± 0.17
26 | AGUCAGCAAUAUUACGCGCG | 0.157 ± 0.12 | -0.374 ± 0.13
27 | AGUCAGCAAUAUUACGCUCG | -0.828 ± 0.075 | -0.495 ± 0.098
28 | AGUCAGCAAUAUUACGGAGG | -2.93 ± 0.13 | -1.31 ± 0.15
29 | AGUCAGCAAUAUUACGGCAC | -0.122 ± 0.093 | -0.255 ± 0.14
30 | AGUCAGCAAUAUUACGGCGC | -0.611 ± 0.13 | -0.0744 ± 0.18
31 | AGUCAGCAAUAUUACGGCUG | -0.616 ± 0.12 | -1.96 ± 0.22
32 | AGUCAGCAAUAUUACGGGGC |  | -2.31 ± 0.45
33 | AGUCAGCAAUAUUACGUAAA | -1.71 ± 0.12 | -0.231 ± 0.11
34 | AGUCAGCAAUAUUACGUGUU | -0.875 ± 0.061 | -0.392 ± 0.096
35 | AGUCAGCAAUAUUACGUUUC | -3.63 ± 0.15 | -1.34 ± 0.11
36 | AGUGAGCAAUAUUACGACAU | -1.07 ± 0.014 | -0.531 ± 0.034
37 | AGUGAGCAAUAUUACGACCG |  | -0.72 ± 0.27
38 | AGUGAGCAAUAUUACGACUU | -1.18 ± 0.17 | -0.93 ± 0.19
39 | AGUGAGCAAUAUUACGAUAA | -4.08 ± 0.33 | -2.16 ± 0.25
40 | AGUGAGCAAUAUUACGAUCG | -0.663 ± 0.23 | -0.975 ± 0.24
41 | AGUGAGCAAUAUUACGCAUU | -2.55 ± 0.21 | -1.4 ± 0.19
42 | AGUGAGCAAUAUUACGCCGC | -1.96 ± 0.25 | -0.183 ± 0.22
43 | AGUGAGCAAUAUUACGCGAU | -3.96 ± 0.42 | -1.8 ± 0.24
44 | AGUGAGCAAUAUUACGCGUA | -1.97 ± 0.27 | -1.48 ± 0.17
45 | AGUGAGCAAUAUUACGCGUU | -3.04 ± 0.19 | -2.18 ± 0.18
46 | AGUGAGCAAUAUUACGCUGG |  | -2.84 ± 0.41
47 | AGUGAGCAAUAUUACGGCAG | -3.28 ± 0.28 | -1.43 ± 0.24
48 | AGUGAGCAAUAUUACGGCCC | -1.16 ± 0.39 | 

Row | Sequence | self-splicing fitness (ln) (30 °C) | self-splicing fitness (ln) (37 °C)
49 | AGUGAGCAAUAUUACGGGCC | -3.49 ± 0.4 | -2.02 ± 0.34
50 | AGUGAGCAAUAUUACGGGGG | -3.05 ± 0.31 | -2.87 ± 0.3
51 | AGUGAGCAAUAUUACGGGUG | -3.71 ± 0.17 | -2.79 ± 0.21
52 | AGUGAGCAAUAUUACGGUUU | -2.09 ± 0.14 | -2.28 ± 0.33
53 | AGUGAGCAAUAUUACGUACU | -1.71 ± 0.13 | -1.15 ± 0.17
54 | AGUGAGCAAUAUUACGUCAG | -3 ± 0.21 | -2.56 ± 0.23
55 | AGUGAGCAAUAUUACGUGGG | -3.7 ± 0.29 | -2.51 ± 0.23
56 | AGUGAGCAAUAUUACGUUCC | -4 ± 0.34 | -1.47 ± 0.16
57 | AGUUAGCAAUAUUACGAAAG | -4.09 ± 0.21 | -2.82 ± 0.24
58 | AGUUAGCAAUAUUACGAACU | -1.59 ± 0.23 | -1.89 ± 0.28
59 | AGUUAGCAAUAUUACGACUU | -1.32 ± 0.078 | -0.587 ± 0.12
60 | AGUUAGCAAUAUUACGAGUU | -1.5 ± 0.086 | -0.514 ± 0.11
61 | AGUUAGCAAUAUUACGAUCG | -0.446 ± 0.1 | -0.0837 ± 0.12
62 | AGUUAGCAAUAUUACGAUCU | -0.0546 ± 0.1 | 0.11 ± 0.13
63 | AGUUAGCAAUAUUACGCAUA | -1.15 ± 0.19 | -0.764 ± 0.29
64 | AGUUAGCAAUAUUACGCGAC | -2.88 ± 0.45 | -0.848 ± 0.26
65 | AGUUAGCAAUAUUACGCGCG | -0.159 ± 0.12 | -0.151 ± 0.15
66 | AGUUAGCAAUAUUACGCUCU | -1.37 ± 0.45 | 
67 | AGUUAGCAAUAUUACGCUGA | -3.13 ± 0.3 | -2.05 ± 0.27
68 | AGUUAGCAAUAUUACGGUUU | -0.98 ± 0.071 | -0.317 ± 0.1
69 | AGUUAGCAAUAUUACGUCUU | -0.214 ± 0.096 | 0.541 ± 0.13
70 | AGUUAGCAAUAUUACGUGCC | -0.977 ± 0.12 | -0.145 ± 0.16
71 | AGUUAGCAAUAUUACGUUCU | -0.403 ± 0.1 | -0.302 ± 0.11
72 | AGUUAGCAAUAUUACGUUGA | -2.03 ± 0.31 | -2.02 ± 0.39

Row | Sequence | self-splicing fitness (ln) (30 °C) | self-splicing fitness (ln) (37 °C)
73 | AUAAAGCAAUAUUACGACGC | 0.18 ± 0.093 | 0.349 ± 0.14
74 | AUAAAGCAAUAUUACGACUC | -0.219 ± 0.075 | 0.324 ± 0.088
75 | AUAAAGCAAUAUUACGAUAC | -1.39 ± 0.12 | -0.441 ± 0.14
76 | AUAAAGCAAUAUUACGCAGC | -3.55 ± 0.4 | -1.04 ± 0.28
77 | AUAAAGCAAUAUUACGCCGA | -1.06 ± 0.077 | 0.123 ± 0.11
78 | AUAAAGCAAUAUUACGCCGC | -2.8 ± 0.18 | -2.05 ± 0.27
79 | AUAAAGCAAUAUUACGCCGG | -0.516 ± 0.13 | -0.807 ± 0.17
80 | AUAAAGCAAUAUUACGCGAG | -1.08 ± 0.075 | 0.0257 ± 0.095
81 | AUAAAGCAAUAUUACGCGCA | 0.0901 ± 0.058 | -0.398 ± 0.075
82 | AUAAAGCAAUAUUACGCGGA | -1.65 ± 0.083 | 0.155 ± 0.089
83 | AUAAAGCAAUAUUACGCGUG | -1.11 ± 0.067 | -0.15 ± 0.074
84 | AUAAAGCAAUAUUACGGCAC | -0.531 ± 0.073 | -0.1 ± 0.11
85 | AUAAAGCAAUAUUACGGCCU | 0.372 ± 0.11 | 0.382 ± 0.14
86 | AUAAAGCAAUAUUACGGCGC | 0.0765 ± 0.13 | 0.21 ± 0.14
87 | AUAAAGCAAUAUUACGGCGG | -0.248 ± 0.062 | -0.197 ± 0.077
88 | AUAAAGCAAUAUUACGGGCC | -2.21 ± 0.17 | -0.0428 ± 0.17
89 | AUAAAGCAAUAUUACGGGGA | -1.96 ± 0.14 | -1.4 ± 0.18
90 | AUAAAGCAAUAUUACGGUGG | -2.61 ± 0.1 | -1.4 ± 0.12
91 | AUAAAGCAAUAUUACGUAAU | -0.762 ± 0.081 | -0.869 ± 0.094
92 | AUAAAGCAAUAUUACGUCAG | -1.6 ± 0.12 | -0.647 ± 0.12
93 | AUAAAGCAAUAUUACGUCGG | -1.28 ± 0.075 | -0.774 ± 0.089
94 | AUAAAGCAAUAUUACGUGAU | -1.64 ± 0.074 | -0.793 ± 0.11
95 | AUAAAGCAAUAUUACGUGGC | -3.27 ± 0.13 | -2.69 ± 0.16
96 | AUAAAGCAAUAUUACGUGUG | -1.55 ± 0.061 | -0.947 ± 0.073
